Results as given in patent publication US7847064B2, “Methods and compositions for regulating gene expression in plant cells” (Donald Danforth Plant Science Center, priority 2004, dated 2010).

How the values were obtained:
[1] = test system: non-transgenic BY-2 protoplasts; experiment: GUS activity of Box II/CaMV 35S chimeric promoters in non-transgenic BY-2 protoplasts; assay type: cell-based, tobacco; conditions: for increase in expression level above the construct without Box II: versus p-48CaMV and p-90CaMV respectively, normalized against GFP; for stimulation of gene expression versus the construct without Box II: Box II at 7 nucleotides from the TATA box plus multiples of 0.5 turns of DNA helix
Text: Specifically, the Box II element was fused to the 5′ end of the chimeric promoters with a space of 7 nucleotides from the TATA box plus 1, 1.5, 3.0, 3.5, 5.0 and 5.5 “turns of DNA helix” (one turn=10.4 base pairs). The chimeric promoters were then inserted into a cassette with the uidA coding sequencing and Nos terminator.
Construction of Plasmids Comprising the Box II Element and Different Lengths of the CaMV 35S Promoter—To construct Box II and CaMV 35S chimeric promoters, the Box II element was introduced into CaMV 35S promoter sequences of different lengths through PCR reactions using Pfu DNA polymerase (Stratagen Systems, Kirkland, Wis.). Forward primers for the PCR reactions were designed to have a HindIII restriction site, followed by the Box II sequence, which was followed by part of the 5′ CaMV promoter at desired positions (see FIG. 12 and Table 2 for specific primer sequences). The GUS 3′ primer (SEQ ID NO:36) was used as reverse primer for all reactions.
The p35S:GUS plasmid was used as template in the foregoing reactions. In the p35S:GUS plasmid, a NcoI restriction site was located between the CaMV 35S promoter and the GUS coding sequence. Thus, a NcoI site was present in all PCR products. The PCR products were restricted with HindIII/NcoI and cloned into a pE:GUS vector to replace the E promoter through the same set of restriction sites. The constructed plasmids containing the chimeric promoters labeled 1 through 6 in Table 2 were named p-1.0hBoxII−48CaMV:GUS, p-1.5hBoxII−53CaMV:GUS, p-3.0hBoxII−69CaMV:GUS, p-3.5hBoxII−74CaMV, p-5.0hBoxII−90CaMV:GUS, and p-5.5hBoxII−95CaMV:GUS, respectively. The controls for this set of plasmids were generated using primer sets 1.5h-53CaMV-c (SEQ ID NO:43)/GUS3′; −3.5h-74CaMV-c (SEQ ID NO:44)/GUS3′ and −5.5h-95CaMV-c (SEQ ID NO:45)/GUS3′, which products were cloned into pE:GUS with HindIII/NcoI to replace the E promoter. The derived plasmids/constructs were named p-53CaMV:GUS, p-74CaMV:GUS and p-95CaMV:GUS, respectively.
The foregoing constructs were then transfected into non-transgenic BY-2 protoplasts, and the resulting GUS activity determined.

[2] = test system: pBII-48Ca::GUS; experiment: Transactivation of pBII-48Ca::GUS by RF2a and RF2a mutants in BY-2 protoplasts; assay type: cell-based, tobacco; conditions: co-transfected with pBII-48Ca::GUS, 24 hours after electroporation, normalized with GFP
Protocol: The relative activity of RF2a and the RF2a mutants (described in Example 8) was then measured. First, a chimeric promoter was developed with a single copy of the Box II element fused to the 5′ end of a minimal CaMV 35S promoter comprising nucleotides −48 to +8 (SEQ ID NO:66). The chimeric promoter was ligated to the uidA coding sequence to create the reporter pBII-48Ca::GUS.
To analyze the function of the several domains of RF2a, effectors were created by inserting coding sequences of RF2a or the mutants of RF2a (described in Example 8) downstream of the enhanced CaMV 35S promoter in the pMON999 vector (a gift from Monsanto Company, St. Louis, Mo.). The resultant constructs, p35S::RF2a, p35S::RF2a-ΔP, p35S::RF2a-ΔQ, p35S::RF2a-ΔPΔA, p35S::RF2a-ΔPΔQ and p35S::RF2a-3Δ, were co-transfected into BY-2 protoplasts with pBII-48Ca::GUS (FIG. 17(A)). Plasmid pCat-GFP, in which the GFP gene was driven by CaMV 35S promoter, was co-introduced to serve as an internal control. The following describes, in greater detail, the construction of these vectors and the methods employed in transfecting the same into BY-2 protoplasts.
Plasmids for protoplast transfection—The coding sequences for mutants of RF2a were released from pET28a-derived plasmids and cloned into the plant expression vector pMON999 (a gift from Monsanto Company, St. Louis, Mo.) to place each gene downstream of an enhanced CaMV 35S promoter, followed by a nopaline synthase terminator sequence. The resulting effector constructs were named p35S::RF2a, p35S::RF2a-ΔP, p35S::RF2a-ΔQ, p35S::RF2a-ΔPΔA, p35S::RF2a-ΔPΔQ and p35S::RF2a-3Δ. The reporter gene construct, pBII-48Ca::GUS, was built using PCR to introduce the Box II element into a minimal CaMV 35S promoter comprising nucleotides −48 to +8 with primers BII-48Ca 5′ (SEQ ID NO:53) (which contained the Box II element) and GUS 3′ (SEQ ID NO:36) using a p35S:GUS plasmid as template. The PCR product was restricted with HindIII and NcoI, and the resulting fragment was inserted into p35S::GUS to replace the original 35S promoter.
Transfection of tobacco BY-2 protoplasts—The protoplasts were isolated from tobacco cell line BY-2 as described by Watanabe et al. (1987). Approximately one million protoplasts were transfected by electroporation with 20 μg of effector construct DNA, 15 μg of herring sperm DNA, 2.5 μg of reporter gene construct DNA, and 15 μg of pCat-GFP DNA. In samples with reporter gene alone, the total amount of DNA was adjusted by adding 20 μg of herring sperm carrier DNA. The electroporation parameters used were 300 V and 250 microfarads with the Bio-Rad electroporation system (Bio-Rad Laboratories, Hercules, Calif.). Protoplast samples were cultured in Murashige and Skoog medium with 0.4 M mannitol, pH 5.8, at 28° C. The protoplasts were collected 24 hours after electroporation.

[3] = test system: Box IIm1 element; experiment: Electrophoretic mobility shift assay; assay type: binding; conditions: 100 ng purified protein, 32P-labeled Box IIm1 DNA probe
Protocol: The purified mutant proteins were then analyzed by SDS-PAGE to confirm that each protein was its expected size (FIG. 16(B)). To confirm that each of the mutant proteins bind to the DNA target, i.e., the Box II element and/or its operational derivatives, gel mobility shift assays were carried out with the purified recombinant proteins (FIG. 16(C)). The electrophoretic mobility shift assays were carried out essentially as described in Yin and Beachy (1995). 100 ng of proteins purified from the transformed E. coli were incubated with ^32P-labeled Box IIm1 DNA probe followed by electrophoresis in a 5% acrylamide gel (Yin et al., 1997) (FIG. 16(C)).

[4] = test system: Nicotiana tabacum cv. Xanthi NN; experiment: Phenotype of transgenic tobacco plants overexpressing RF2a or RF2a mutants; assay type: in vivo; conditions: CaMV 35S promoter driven, T1 generation, greenhouse
Text: (Yin et al., 1997; Petruccelli et al., 2001). […] Fifteen or more independent transgenic tobacco lines were developed with the constructs described below through Agrobacterium-mediated transformation.
Plasmids for Agrobacterium-mediated transformation—The fusion genes described above relating to the plant expression constructs comprising RF2a deletion mutants were released from pMON999-derived plasmids using NotI (blunted) and cloned into the binary vector pGA-E::GUS (Petruccelli et al., 2001) using the blunt HindIII site (downstream of a CaMV 35S promoter sequence). The final plasmids were named pGA-E::GUS/P-35S::ΔP, pGA-E::GUS/P-35S::ΔQ, pGA-E::GUS/P-35S::ΔPΔA and pGA-E::GUS/P-35S::ΔPΔQ. A plasmid encoding full-length RF2a, p35S::RF2a, was also constructed using the methods described herein.
Tobacco transformation—the plasmids described above were introduced into Agrobacterium tumefaciens strain LBA4404 and used for tobacco transformation. Leaf discs from Nicotiana tabacum cv. Xanthi NN were transformed with the various plasmids following the protocol of Horsch et al. (1988). At least 15 independent transgenic lines were produced with each gene construct. Transgenic plants were self-fertilized, and T1 seeds were collected. The T1 seeds were germinated on Murashige and Skoog medium (Murashige and Skoog, 1962) with kanamycin (100 mg/L) selection, and Kan^r seedlings were grown in a greenhouse for observation.
The phenotype caused by 35S::RF2a-ΔPΔA was similar to, but less severe than, the phenotype caused by 35S::RF2a-3Δ. […] (FIG. 19(C)).

In the case of “p1.0hBoxII−48CaMV: Box II fused to CaMV 35S promoter, 7 nucleotides from TATA box plus 1 turn of DNA helix (DNA TGATCAAAGCTTCCAGTGTGCCCCTGGTCGCAAGACCCTTCCTC; listed as DNA, chemistry not given here)”, the “increase in expression level above the construct without Box II” value [1] is reported as 6.9 fold.

With “p5.0hBoxII−90CaMV: Box II fused to CaMV 35S promoter, 7 nucleotides from TATA box plus 5.0 turns (DNA TGATCAAAGCTTCCAGTGTGCCCCTGGATCTCCACTGACGTAAG; listed as DNA, chemistry not given here)” the “increase in expression level above the construct without Box II” value [1] was 4.7 fold.

In the case of “p-1.5hBox II−53CaMV: Box II fused to CaMV 35S promoter, 7 nucleotides from TATA box plus 1.5 turns (DNA TGATCAAAGCTTCCAGTGTGCCCCTGGATCCTTCGCAAGACCCT; listed as DNA, chemistry not given here)”, the “stimulation of gene expression versus the construct without Box II” value [1] is reported as “much less or no stimulation of gene expression”.

In the case of “p-3.5hBox II−74CaMV: Box II fused to CaMV 35S promoter, 7 nucleotides from TATA box plus 3.5 turns (DNA TGATCAAAGCTTCCAGTGTGCCCCTGGGGGATGACGCACAATCC; listed as DNA, chemistry not given here)”, the “stimulation of gene expression versus the construct without Box II” value [1] is reported as “much less or no stimulation of gene expression”.

“p-5.5hBox II−95CaMV: Box II fused to CaMV 35S promoter, 7 nucleotides from TATA box plus 5.5 turns (DNA TGATCAAAGCTTCCAGTGTGCCCCTGGGTGATATCTCCACTGAC; listed as DNA, chemistry not given here)” was tested, and the “stimulation of gene expression versus the construct without Box II” value [1] was “much less or no stimulation of gene expression”.

B1: RF2a-ΔP: RF2a mutant, proline-rich domain removed, SEQ ID NO:68 (protein)
chain: MGHRRAHSEILSLPEDLDLCAAGGGDGPSLSDENDEELFSMFLDVEKLNSTCGASSEAEAESSSAAAHGARPKHQHSLSMDESMSIAEELVGASPGTEGMSSAEAKKAVSAVKLAELALVDPKRAKRIWANRQSAARSKERKMRYIAELERKVQTLQTEATTLSAQLALLQRDTSGLTTENSELKLRLQTMEQQVHLQDALNDTLKSEVQRLKVATGQMANGGGMMMNFGGMPHQFGGNQQMFQNNQAMQSMLAAHQLQQLQLHPQAQQQQVLHPQHQQQQPLHPLQAQQLQQAARDLKMKSPMGGQSQWGDGKSGSSGN
modifications: This sequence was artificially derived and/or created by the inventors.
For B1, the “activation function (relative GUS activity)” value [2] was “greater than that of full-length RF2a”, the “binding in gel mobility shift assay” value [3] was “bind to the Box IIm1 element” and the “phenotype of transgenic tobacco plants” value [4] was “did not exhibit abnormal phenotypes”.

B2: RF2a-ΔQ: RF2a mutant, glutamine-rich domain removed, SEQ ID NO:69 (protein)
chain: MNREKSPIPGDGGDGLPPQATRRAGPPAAAAAAEYDISRMPDFPTRNPGHRRAHSEILSLPEDLDLCAAGGGDGPSLSDENDEELFSMFLDVEKLNSTCGASSEAEAESSSAAAHGARPKHQHSLSMDESMSIKAEELVGASPGTEGMSSAEAKKAVSAVKLAELALVDPKRAKRIWANRQSAARSKERKMRYIAELERKVQTLQTEATTLSAQLALLQRDTSGLTTENSELKLRLQTMEQQVHLQDALNDTLKSEVQRLKVATGQMANGGGMMMNFGGMPHQ
modifications: This sequence was artificially derived and/or created by the inventors.
B2 was tested, and the “activation function (relative GUS activity)” value [2] was “greater than that of full-length RF2a”, the “binding in gel mobility shift assay” value [3] was “bind to the Box IIm1 element” and the “phenotype of transgenic tobacco plants” value [4] was “did not exhibit abnormal phenotypes”.
